Legend:
[1] = molecular target: Kv2.1 subunit (unlabeled) (human) (UniProt Q14721)
[2] = molecular target: CFP-tagged C-terminal segment of Kv2.1 (human); test: FRET or BRET; acceptor (YFP) photobleaching FRET in HEK293 cells co-transfected with CFP- and YFP-tagged fragments in a 1:2 cDNA ratio, 48 h after transfection; only cells with YFP/CFP intensity ratio >1
[3] = molecular target: CFP-tagged Kv6.4 C-terminus (human); test: as above
[4] = molecular target: CFP-tagged N-terminal Kv2.1 fragment (human); test: as above
[5] = molecular target: CFP-tagged N-terminal Kv6.4 fragment (human); test: as above
[6] = molecular target: CFP-tagged N-terminal Kv3.1 fragment (human); test: as above
Sequence of CFP-tagged N-terminal Kv3.1 fragment (human) (P48547 whole entry, the tested form may be a part): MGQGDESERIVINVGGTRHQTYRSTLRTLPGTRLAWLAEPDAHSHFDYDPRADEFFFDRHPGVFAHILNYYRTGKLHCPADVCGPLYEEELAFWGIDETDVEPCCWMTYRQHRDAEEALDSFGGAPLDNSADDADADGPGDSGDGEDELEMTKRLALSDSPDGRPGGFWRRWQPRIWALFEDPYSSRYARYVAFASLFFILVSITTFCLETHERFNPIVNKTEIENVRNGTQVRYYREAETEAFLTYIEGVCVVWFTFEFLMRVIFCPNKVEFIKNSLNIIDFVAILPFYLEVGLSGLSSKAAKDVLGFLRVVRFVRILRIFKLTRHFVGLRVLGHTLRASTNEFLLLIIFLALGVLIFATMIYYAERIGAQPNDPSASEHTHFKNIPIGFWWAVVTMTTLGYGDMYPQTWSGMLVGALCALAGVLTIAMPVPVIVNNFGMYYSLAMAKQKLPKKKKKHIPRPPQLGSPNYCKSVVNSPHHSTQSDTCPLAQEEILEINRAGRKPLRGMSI

Sequence of YFP-tagged N-terminal Kv3.1 fragment (domain or fragment) (P48547 whole entry, the tested form may be a part): as above
Sequence of CFP-tagged N-terminal Kv6.4 fragment (human) (Q8TDN1 whole entry, the tested form may be a part): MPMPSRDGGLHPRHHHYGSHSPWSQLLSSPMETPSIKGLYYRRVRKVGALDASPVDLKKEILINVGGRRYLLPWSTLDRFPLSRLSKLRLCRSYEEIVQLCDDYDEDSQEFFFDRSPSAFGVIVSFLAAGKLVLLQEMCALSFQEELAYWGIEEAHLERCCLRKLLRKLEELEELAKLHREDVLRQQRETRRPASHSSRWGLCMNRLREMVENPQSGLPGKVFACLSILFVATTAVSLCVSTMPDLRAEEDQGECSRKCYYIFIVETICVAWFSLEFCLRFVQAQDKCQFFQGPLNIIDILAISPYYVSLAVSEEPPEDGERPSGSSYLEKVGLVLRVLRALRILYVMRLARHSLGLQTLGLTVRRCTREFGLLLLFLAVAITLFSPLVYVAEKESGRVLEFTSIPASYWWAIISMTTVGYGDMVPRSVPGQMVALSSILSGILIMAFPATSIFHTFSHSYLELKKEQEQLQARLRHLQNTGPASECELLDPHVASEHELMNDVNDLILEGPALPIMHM
Sequence of CFP-tagged Kv6.4 C-terminus (human) (Q8TDN1 whole entry, the tested form may be a part): as above

| midpoint of inactivation, V1/2, 1st component of the double Boltzmann fit (as of Kv2.1 homotetramers), whole-cell currents in HEK293 cells co-expressing Kv2.1 and Kv6.4(CKv3.1) [1] [mV] | midpoint of inactivation, V1/2, 2nd component of the double Boltzmann fit, whole-cell currents in HEK293 cells co-expressing Kv2.1 and Kv6.4(CKv3.1) [1] [mV] | FRET efficiency [2] [%] | FRET efficiency [3] [%] | FRET efficiency [4] [%] | FRET efficiency [5] [%] | FRET efficiency [6] [%] | Substance |
| --- | --- | --- | --- | --- | --- | --- | --- |
| -24.3 | -71.1 | – | – | – | – | – | Kv6.4(CKv3.1) chimera in which the C-terminus of Kv6.4 was replaced by the corresponding domain of Kv3.1 |
| – | – | 8.3 | 8.7 | 21.7 | 21.3 | – | YFP-tagged N-terminal Kv2.1 fragment (domain or fragment) |
| – | – | – | – | – | 9.6 | 28.8 | YFP-tagged N-terminal Kv3.1 fragment (domain or fragment) |

Source: PMC4047056
